Experiment: yeast display, Sf9 membrane polyspecificity reagent, FACS + sequencing; frameworks hold sequencing errors
Procedure, shortened: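 Polyreactivity labels are assigned by the sorting gate from which each nanobody was recovered. The gates were low and high (top ~1%), set on anti-HA fluorescence for expression and streptavidin fluorescence for reagent binding. Before sorting, galactose-induced (36–48 hours) yeast display cells were stained for 1 hour at 4 °C with 10% biotinylated, detergent-solubilized Sf9 membrane reagent.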

| Sequence | polyreactivity (PSR sort gate) |
| --- | --- |
| QVQLVESGGGLVQAGGSLRLSCAASGSTFTSNAMGWYRQAPGKERELVAAISFSDASTYYADSVKGRFTISRDNAKKTVYLQMNRLKPEDTAVYYCNADYPTTAYDYCGQGTQVTVSS | low polyreactivity |
| QVQLVESGGRLVQAGGTLRLSCAASGSICGFNAMGWYRQAPGKERELVAAINNGGSKNYADSVKGRFTISRDNAKITVYLQMKILKQEDTEVYYCAARLNYIRRGYWGQGTQVTVSS | high polyreactivity |
| QVQLVESGGGLVQAGGSLRLSCAASGSTLPRYTMGWYRQAPGKERELVAAISFSGSSTYYADSVKGRFTISRDNAKNTVYLQMNSMKPEDTSVYYCRYGYNYWGQGTQVTVSS | high polyreactivity |
| QVQLVESGGGLVQAGGSLRLSCAASGRTFPWYAMGWYRQAPGKERELVADITWSGGSTYYADSVKGRFTISRDNAKNTVYLQMNSLKPEDTAVYYCATRVLFWYRKYPGRPLTKYDYWGQGTQVTVSS | high polyreactivity |
| QVQLVESGGGLVQAGGSLRLSCAASGLTFSTYDMGWYRQAPGKERELVAAITSGDGSTYYADSVKGRFTISRDTAKNTVYLQMNSLKPEDTAVYYCAADYLEWYGDVLFPYDYWGQGTQVTVSS | low polyreactivity |
| QVQLVESGGGLVQAGGSLRLSCAASGSTFYLYTMGWYIQAPGKERELVAAISPSGGSTRYADSVKGRFTISRDNAKNTVYLQMNSLKPEDTAVYYCAARSTVYPRPHERDYWGQGTQVTVSS | high polyreactivity |
| QVQLVESGGGLVQAGGSLRLSCAASGSIFPYNAMGWYRQAPGKERELVATISSGGSTNYADSVKGRFTISRDNAKNTVYLQMNSLKPEDTAVYDCAADVIVFYYAPNYWGDIGYGYWGQGTQVTVSS | low polyreactivity |
| QVQLVESGGGLVQAGGSLRLSCAASGYILHRNAMGWYRQAPGKERELVAVISWGGTSTYYADSVKGRFTISRDNAKNTVYLLMNSLKPEDTAVYYCNAKGWYYKYDYWGQGTQVNVSS | high polyreactivity |
| QVQLVESGGGLVQAGGSLRLSCAASGLIFPGYAMGWYRQAPGKERELVAAISWSGGTTYYADSVKGRFTISRDNAKNTVYLQMNSLKPEDTAVYYCNAVYLQGYDYWGQGTQVTVSS | low polyreactivity |
| QVQLVESGGGLVQAGGSLRLSCAASGITFSRYAMGWYRQAPGKERELVASISTSGGSTYYADSVKGRFTISRDNAKNTVYLQMNSLKPEDTAVYYCAASVWSSRRFGYWGQGTQVSVSS | high polyreactivity |
| QVQLVESGGGLVQAGGSLRLSCASSGITFRYYAMGWYRQAPGKERELVAAISDGGSTNYADSVKGRFTISRDNAKNTVYLQMNSLKPEDTAVYYCAADYRYLFDYWGQGTQVTVSS | high polyreactivity |
| QVQLVESGGGLVHAGGSLRLSCAASGRIFTSYVMGWYRQAPAKERELVAAITRSGGSTYYADSVKGRFTISRDNAKNTVYLQMISLKPEDTAVYYCNALTRRQKGGEGGGYWGQGTQVTVSS | high polyreactivity |
| QVQLVESGGGLVQAGGSLRLSCAASGRTFWYYTMGWYRQAPGKERELVAAISSGGRTNYADSVKGRFTISRDNAKNTVYLQMNSLKPEDTAVYYCATSRYYKYVERDYWGQGTQVTVSS | high polyreactivity |
| QVQLVESGGGLVQAGGSLRLSCAAYGSIFGVNVMGWYRQSPGKERELVAAIDVSDTSTYYADSVKGRFTMSRDNAKNTVYLQLNSLKPDDTAVYYCAADGLRWWPFEYRFTFDYWGQGTQVTVSS | low polyreactivity |
| QVQLVESGGGLVQAGGSLRLSCAASGFIFTYYALGWYRQAPGKERELVAAITIGGTTNYADSVKGRFTISRDNAKNTVYLQMNSLKPEDTAVYYCAAYFTIEDWYYNEAVRYYYWGQGTKVTVSS | high polyreactivity |
| QGQLVESGGGLVQAGGSLRLSCAASGSTFDYYVMGWYRQAPRKERELVAAISSGDSTNYADSVKGRFTISRDNAKNTVYLQMNSLKPEDTAVSYCAAEYTVHYDYWGQGTQVTVSS | low polyreactivity |

| Sequence | polyreactivity (PSR sort gate) |
| --- | --- |
| QVQLVESGGGLFQAGGSLRLSCAASGFIFSHYAMGWYRQAPGNDREFVATISKRGGSTTYADSVKGRFTISRDNAKNTVYFQMNSLKPVDTAVYDFAADYYPASAGFDYWGQGTQVTVSS | high polyreactivity |
| QVQLVESGGGLVQAGGSLRLSCAASGSTFRGYAMGWYRQAPGKERELVAAITFRGGSTYYADSVKGRFTISRDNAKNTVFLQMNSLKPEDTEVYYCYVRIYGYDYWGQGTQVSVSS | high polyreactivity |
| QVQLVESGGGLVQAGGSLRLSCAASGFTFPTYAMGWYRPAPGKERELVAAITRGGSTYYADSVKGRFTISRDNAKNTVYLQMNSLKPEDTAVYYCAGDDPWYEEDYWGQGTQVTVSS | low polyreactivity |
| QVQLVESGGGLVQAGGSLRLSCAASGRTFWLYAMGWYRQAPGKERELVARITRRDGSTNYADSVKGRFTISRDNAKNTVYLQMNSLKPEDTAVYYCAAGRFRYPPGAYDYWGQGIQVTVSS | high polyreactivity |
| QVQLVESGGGLVQAGGSLRLSCAASGLIFSSNAMGWARQAPGKEREWVAAITSGGSTNYADSVKGRFTISRDNAHNTVYLQMNSLKPEDTAVYYCNAVSPHYFGGSYDYWGQGTQVTVSS | low polyreactivity |
| QVQHVESGGGLVQAGGSLRLSCASSGSTFWFYAMGWYRQAPGKERELVATINWYGGTTNYADSVKGRFTISRDNAKNSVYLQMYSLKPEDTADYYGAGYQALTYGSYEYWGQGSQVTVSS | low polyreactivity |
| QVHLVESGGRLVQAGGSLRLSSAASGSIFVKNAMGWYRQAPGKERELVATISSGGSTYYADSVKGRFTISRDNAKNTVYLQMNSLKPEDTAVYYSNTASYVSWYVHYYYWGVGTQVTVSS | low polyreactivity |
| QVQLVESGGGLVQAGGSLRLSCAASGRTFGYNAMAWYRQAPRKERELVAAISRGGSTNYADSVKGRFTISRDNAKNTVYLQMNSLKPEDTAVYYCAAYDWRVLWGYDYWGQGTQVTVSS | low polyreactivity |
| QVHLQESGGGLVQAGGSLRLSCAASGNNSPVGVLGRYRQAPGKERELVATINFGGSSYYADSVKGRFTISRDNAKNTVYLQMNSLKREDTAVYYFAYCGQGTQVTVSS | low polyreactivity |
| QVQLVESGGGLVQAGGSLRLSSAASGSTLYRYAMGWYRQAPGKERELVAAISRSGGNTYYADSVKGRFTISRDNAKNTVYLQMNSLKPEDTAVYYCNADSFIRYDYWGQGTQVTVSS | high polyreactivity |
| QVQLVESGGGLVQAGGSLRLSCAASGFTFADYAMGWYRQAPGKEREWVAAISNGGSTTYADSVKGRFTSSRDNAKNTVYLQMNTLNPEDTAVYYCAAALSSYGWYAYGPWYGYWGQGTQVTVSS | high polyreactivity |
| QVQLQESGGGLVQVGGSLRLSFAASGTIFIYGFLGWNLQAPGKERELVASINLGGITNYADSVKGRFTISRDNAKNTVYLQMLSLKPEDTAVYYCAAYVVTGQNYGYWGQGTQVTVSS | low polyreactivity |
| QVQLVESGGGLVQAGGSLRLTCAASGFIFYAYTMRCYRQAPGKERELVAAISRSGGRTYYADSVKGRFTISRDNAKNTVYLQMNRLKPEDTAVYYCAAEYRGVPRVVVDYDYWGQGTQVTVSS | high polyreactivity |
| QVQLVESGGGLVQAGGSLRLSCAASGFTFHYYAMGRYRQAPGKERELVAAISWDTGSTYYADSVKGRFTISRDNAKNTVYLQMNSLKPEDTAVYYCNAQFYWYHGEWVFYGLSDDFDYWGQGTQVTVSS | high polyreactivity |
| QVHLVESGGGLVQAGCSLRLICAASGRIFTLYAMGWYRQAPGTEMEFVAAINRGGSTNYADSVKGRFTISRDNAKNTVYLQMNSLKPEVTAVYYCAAITTSRFRTYSYDYWGQGTKVTVSS | high polyreactivity |
| QVQLVESGGGLVQAGGSLRLSCAASGNTFGDNAMGWYRQAPGKERELDAAISTGGNTYYADSVKGRFTISRDNAKNSVYLQMNSLKPEDTAVYYCNAKWIPDTLFGIHETEGDYWGQGTQVTVSS | low polyreactivity |

Reference: the nanobody polyreactivity screen of Harvey et al. (2022)
